These results are taken from publication PMC10950897, “VCF1 is a p97/VCP cofactor promoting recognition of ubiquitylated p97-UFD1-NPL4 substrates” (Nature Communications, 2024).

Assay [1] deals with GFP-VCF1 WT interactome, U2OS cells. Kind of assay: GFP IP mass spectrometry of VCF1-interacting proteins, partially denaturing RIPA buffer (+DOX/-DOX). It is filed as binding, human. The procedure:
(§1) U2OS (catalog no. HTB-96) cells were obtained from ATCC. HEK293-EBNA1-6E cells were a kind gift from Yves Durocher (National Research Council Canada, Montreal, Canada). All mammalian cell lines were cultured under standard conditions at 37 °C and 5% CO2 in DMEM (Thermo) supplemented with 10% FBS (v/v) and penicillin-streptomycin (Thermo). Recombination cloning-compatible U2OS cells were generated using the Flp-In T-Rex Core Kit (Thermo) according to the manufacturer’s instructions and maintained under selection using Blasticidin (Invivogen) and Zeocin (Thermo). To generate cell lines stably expressing GFP-VCF1, U2OS Flp-In T-Rex cells (Thermo) were co-transfected with GFP-VCF1 constructs and pOG44 (Thermo) plasmids, followed by selection with Hygromycin (Invitrogen). Single clones were carefully screened for uniform expression of ectopic GFP-VCF1 at low levels and maintained under selection with Blasticidin and Hygromycin. To induce GFP-VCF1 expression, cells were treated with Doxycycline (DOX) (0.5 µg/ml) for 16 h. U2OS cell lines stably expressing Ub(G76V)-GFP or Ub(G76V)-GFP-20AA were described previously. A U2OS cell line stably expressing Ub(G76V)-GFP-NES was generated under G418 (Invivogen) selection. Clones with low baseline GFP expression were visually screened for low basal GFP expression. All cell lines used in this study were regularly tested negative for mycoplasma infection and were not authenticated.
Immunoblotting was performed as previously described. Immunoprecipitation (IP) of HA-tagged proteins was performed using Anti-HA Affinity matrix (Roche) under denaturing conditions, unless otherwise stated. GFP-trap and […] Fab-trap agarose (Chromotek) were used according to manufacturer’s instructions. Cell lysis was performed using RIPA buffer (140 mM NaCl; 10 mM Tris-HCl, pH 8.0; 0.1% sodium deoxycholate; 1% Triton X-100; 0.1% SDS; 1 mM EDTA; 0.5 mM EGTA) or EBC buffer (50 mM Tris, pH 7.5; 150 mM NaCl; 1 mM EDTA; 0.5% NP-40, 1 mM DTT). IPs were washed in non-denaturing buffer (50 mM Tris-HCl, pH 7.5; 150 mM NaCl; 0.5 mM EDTA). […]

Assay [2] concerns p97 with UFD1-NPL4, p47 or FAF1. The assay is described as follows: In vitro binding with p97 cofactors (GST, StrepTactin, p47, p97 or FLAG pulldown). Further details: species or system human. The conditions noted are these: high/increasing concentrations. How it is done:
All in vitro binding experiments were performed in EBC or RIPA buffer as indicated. Recombinant Biotin-tagged K48-linked poly-ubiquitin chains (2−7) and K48-linked poly-ubiquitin chains (2−16) were purchased from R&D Systems and Enzo Life Science, respectively. Recombinant proteins were incubated with Strep-Tactin Sepharose (IBA), Glutathione agarose (Gold Biotechnology) or […] Fab-trap agarose (ChromoTek) overnight on an end-over-end rotator at 4 °C, washed six times with EBC or RIPA buffer, and resuspended in 2×Laemmli sample buffer. For p97, VCF1 or p47 pulldowns, antibodies (0.5 µg/sample) were coupled to agarose beads, incubated with recombinant proteins or cell lysates and washed with the indicated buffer. To assess p97-UFD1-NPL4 binding to ubiquitylated proteins in total cell extracts, U2OS cells were lysed in EBC buffer supplemented with protease and phosphatase inhibitors, sonicated and incubated on ice for 10 min. Lysates were cleared by centrifugation for 10 min at 16,100 × g. Cell lysate (40 µg) was added to recombinant proteins in EBC buffer, incubated overnight on the rotator with […] Fab-trap agarose (ChromoTek), and beads were washed six times.

For another assay, the target named is p97. The conditions noted are these: reported for p47/NSFL1C; cited from earlier work. The source says:
Through in silico searches for candidate regulators of p97 function, we came across FAM104A, a virtually uncharacterized protein detected in unbiased large-scale proteomic profiles of p97 interaction networks along with known p97 cofactors (Supplementary Fig. 1a)[20],[21], but whose precise connection to p97 has not been studied. In humans, FAM104A encodes a relatively small protein of 186 amino acids that contains no annotated domains but is conserved across vertebrates (Supplementary Fig. 1b) and is broadly expressed, albeit at low levels, in human tissues. For reasons described in the follo ...

The test system of assay [3] is GFP-VCF1 WT / N167A interactome, U2OS cells. The assay is described as follows: GFP IP mass spectrometry, comparison of VCF1 WT and N167A interactomes (WT/N167A). It is filed as binding, human. The conditions noted are these: GFP-VCF1 WT / N167A IPs, partially denaturing RIPA buffer. How it is done:
as §1, with “All cell lines used in this study were regularly tested negative for mycoplasma infection and were not authenticated.” left out

B1: Isocitrate dehydrogenase [NAD] subunit gamma, mitochondrial (protein, UniProt P51553 40-393, looked up)
Isocitrate dehydrogenase …: FSEQTIPPSAKYGGRHTVTMIPGDGIGPELMLHVKSVFRHACVPVDFEEVHVSSNADEEDIRNAIMAIRRNRVALKGNIETNHNLPPSHKSRNNILRTSLDLYANVIHCKSLPGVVTRHKDIDILIVRENTEGEYSSLEHESVAGVVESLKIITKAKSLRIAEYAFKLAQESGRKKVTAVHKANIMKLGDGLFLQCCREVAARYPQITFENMIVDNTTMQLVSRPQQFDVMVMPNLYGNIVNNVCAGLVGGPGLVAGANYGHVYAVFETATRNTGKSIANKNIANPTATLLASCMMLDHLKLHSYATSIRKAVLASMDNENMHTPDIGGQGTTSEAIQDVIRHIRVINGRAVEA
notes: prey protein
B1: in assay [1], the “Relative protein level (log2) WT/noDox” value is listed as 1.726 log2.

B2: U4/U6.U5 tri-snRNP-associated protein 2 (protein, UniProt Q53GS9 1-565, looked up)
Ubiquitin carboxyl-terminal …: MSGRSKRESRGSTRGKRESESRGSSGRVKRERDREREPEAASSRGSPVRVKREFEPASAREAPASVVPFVRVKREREVDEDSEPEREVRAKNGRVDSEDRRSRHCPYLDTINRSVLDFDFEKLCSISLSHINAYACLVCGKYFQGRGLKSHAYIHSVQFSHHVFLNLHTLKFYCLPDNYEIIDSSLEDITYVLKPTFTKQQIANLDKQAKLSRAYDGTTYLPGIVGLNNIKANDYANAVLQALSNVPPLRNYFLEEDNYKNIKRPPGDIMFLLVQRFGELMRKLWNPRNFKAHVSPHEMLQAVVLCSKKTFQITKQGDGVDFLSWFLNALHSALGGTKKKKKTIVTDVFQGSMRIFTKKLPHPDLPAEEKEQLLHNDEYQETMVESTFMYLTLDLPTAPLYKDEKEQLIIPQVPLFNILAKFNGITEKEYKTYKENFLKRFQLTKLPPYLIFCIKRFTKNNFFVEKNPTIVNFPITNVDLREYLSEEVQAVHKNTTYDLIANIVHDGKPSEGSYRIHVLHHGTGKWYELQDLQVTDILPQMITLSEAYIQIWKRRDNDETNQQGA
notes: prey protein
B2: the “Relative protein level (log2) WT/noDox” value in assay [1] is recorded as 1.44 log2.

B3: p47: p97 cofactor (protein)
chain: MAAERQEALREFVAVTGAEEDRARFFLESAGWDLQIALASFYEDGGDEDIVTISQATPSSVSRGTAPSDNRVTSFRDLIHDQDEDEEEEEGQRFYAGGSERSGQQIVGPPRKKSPNELVDDLFKGAKEHGAVAVERVTKSPGETSKPRPFAGGGYRLGAAPEEESAYVAGEKRQHSSQDVHVVLKLWKSGFSLDNGELRSYQDPSNAQFLESIRRGEVPAELRRLAHGGQVNLDMEDHRDEDFVKPKGAFKAFTGEGQKLGSTAPQVLSTSSPAQQAENEAKASSSILIDESEPTTNIQIRLADGGRLVQKFNHSHRISDIRLFIVDARPAMAATSFILMTTFPNKELADESQTLKEANLLNAVIVQRLT
modifications: left off: His6, end not stated, state not stated
notes: p97 cofactor
In the case of B3, the “displacement of p97-bound cofactors” value in assay [2] is on record as “did not lead to dissociation of VCF1 from p97”. The Kd (usually the concentration at which binding is half-saturated) at p97 is 200 to 500 nM.

B4: LMNA (protein, UniProt P02545 1-661, looked up)
Prelamin-A/C: METPSQRRATRSGAQASSTPLSPTRITRLQEKEDLQELNDRLAVYIDRVRSLETENAGLRLRITESEEVVSREVSGIKAAYEAELGDARKTLDSVAKERARLQLELSKVREEFKELKARNTKKEGDLIAAQARLKDLEALLNSKEAALSTALSEKRTLEGELHDLRGQVAKLEAALGEAKKQLQDEMLRRVDAENRLQTMKEELDFQKNIYSEELRETKRRHETRLVEIDNGKQREFESRLADALQELRAQHEDQVEQYKKELEKTYSAKLDNARQSAERNSNLVGAAHEELQQSRIRIDSLSAQLSQLQKQLAAKEAKLRDLEDSLARERDTSRRLLAEKEREMAEMRARMQQQLDEYQELLDIKLALDMEIHAYRKLLEGEEERLRLSPSPTSQRSRGRASSHSSQTQGGGSVTKKRKLESTESRSSFSQHARTSGRVAVEEVDEEGKFVRLRNKSNEDQSMGNWQIKRQNGDDPLLTYRFPPKFTLKAGQVVTIWAAGAGATHSPPTDLVWKAQNTWGCGNSLRTALINSTGEEVAMRKLVRSVTVVEDDEDEDGDDLLHHHHGSHCSSSGDPAEYNLRSRTVLCGTCGQPADKASASGSGAQVGGPISSGSSASSVTVTRSYRSVGGSGGGSFGDNLVTRSYLLGNSSPRTQSPQNC
In the case of B4, in assay [3], the “Relative protein level (log2) WT/MUT” value came to 3.361 log2.

B5: Complement component 1 Q subcomponent-binding protein, mitochondrial (protein, UniProt Q07021 74-282, looked up)
Complement component 1 Q …: LHTDGDKAFVDFLSDEIKEERKIQKHKTLPKMSGGWELELNGTEAKLVRKVAGEKITVTFNINNSIPPTFDGEEEPSQGQKVEEQEPELTSTPNFVVEVIKNDDGKKALVLDCHYPEDEVGQEDEAESDIFSIREVSFQSTGESEWKDTNYTLNTDSLDWALYDHLMDFLADRGVDNTFADELVELSTALEHQEYITFLEDLKSFVKSQ
notes: prey protein
Turning to B5, the “Relative protein level (log2) WT/noDox” value in assay [1] turned out to be 2.689 log2.
